Measured values from patent US20210115102.

What was measured:
[1] = test system: CTSL1_1 FRET substrate (ALFKSSFP)
[2] = test system: CTSL1_2 8-mer FRET substrate Mca-ALFFSSPPK-Dnp
[3] = test system: CTSL1_2 9-mer FRET substrate Mca-ALFFSSPPSK-Dnp

ALU30-6, sequence (chain, as listed by the source): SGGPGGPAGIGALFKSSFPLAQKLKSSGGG
ALU30-15, sequence (chain, as listed by the source): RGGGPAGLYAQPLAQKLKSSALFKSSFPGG
Cathepsin L (CTSL1), recombinant human, sequence (chain, as listed by the source): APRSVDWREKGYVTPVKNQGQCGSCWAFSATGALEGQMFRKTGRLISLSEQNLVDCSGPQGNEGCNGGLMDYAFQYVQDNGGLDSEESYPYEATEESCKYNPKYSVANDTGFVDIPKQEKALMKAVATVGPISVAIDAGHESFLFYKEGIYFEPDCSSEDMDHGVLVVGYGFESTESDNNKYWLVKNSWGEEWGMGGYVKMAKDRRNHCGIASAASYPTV
ALU30-18, sequence (chain, as listed by the source): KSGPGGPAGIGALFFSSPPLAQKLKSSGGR
ALU30-5, sequence (chain, as listed by the source): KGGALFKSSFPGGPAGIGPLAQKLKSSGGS
ALU30-13, sequence (chain, as listed by the source): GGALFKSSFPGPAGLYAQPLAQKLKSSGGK
ALU30-10, sequence (chain, as listed by the source): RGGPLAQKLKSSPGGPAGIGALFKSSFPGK
ALU30-11, sequence (chain, as listed by the source): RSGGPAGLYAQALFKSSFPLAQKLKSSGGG
ALU30-1, sequence (chain, as listed by the source): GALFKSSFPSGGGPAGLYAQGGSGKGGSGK
ALU30-7, sequence (chain, as listed by the source): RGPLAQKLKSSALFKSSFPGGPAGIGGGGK
ALU30-12, sequence (chain, as listed by the source): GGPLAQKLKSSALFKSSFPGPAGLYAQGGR
ALU30-8, sequence (chain, as listed by the source): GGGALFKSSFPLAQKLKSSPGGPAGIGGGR
ALU30-16, sequence (chain, as listed by the source): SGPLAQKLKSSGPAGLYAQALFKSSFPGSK
ALU30-17, sequence (chain, as listed by the source): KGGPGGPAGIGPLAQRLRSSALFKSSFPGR
ALU30-9, sequence (chain, as listed by the source): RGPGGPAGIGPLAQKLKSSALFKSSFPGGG
ALU30-14, sequence (chain, as listed by the source): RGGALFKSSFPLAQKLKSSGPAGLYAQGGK
ALU30-3, sequence (chain, as listed by the source): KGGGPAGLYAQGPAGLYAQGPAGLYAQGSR
ALU30-4, sequence (chain, as listed by the source): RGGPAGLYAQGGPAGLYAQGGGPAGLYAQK
ALU30-2, sequence (chain, as listed by the source): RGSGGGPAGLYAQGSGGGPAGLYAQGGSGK
ALU30-19, sequence (chain, as listed by the source): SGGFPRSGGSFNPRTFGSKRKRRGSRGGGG

Substance	30-mer substrate degradation (MSP-MS) (ALU30-10)	30-mer substrate degradation (MSP-MS) (ALU30-11)	30-mer substrate degradation (MSP-MS) (ALU30-12)	30-mer substrate degradation (MSP-MS) (ALU30-13)	30-mer substrate degradation (MSP-MS) (ALU30-14)	30-mer substrate degradation (MSP-MS) (ALU30-15)	30-mer substrate degradation (MSP-MS) (ALU30-16)	30-mer substrate degradation (MSP-MS) (ALU30-17)	30-mer substrate degradation (MSP-MS) (ALU30-18)	30-mer substrate degradation (MSP-MS) (ALU30-1)	30-mer substrate degradation (MSP-MS) (ALU30-5)	30-mer substrate degradation (MSP-MS) (ALU30-6)	30-mer substrate degradation (MSP-MS) (ALU30-7)	30-mer substrate degradation (MSP-MS) (ALU30-8)	30-mer substrate degradation (MSP-MS) (ALU30-9)	also measured
Cathepsin L (CTSL1), recombinant human	The most efficiently cleaved peptides were those containing the FAPa_1, CTSL1_1 and ADAM17_2 motifs, in multiple orders.	Peptides bearing the MMP14_1 motif with CTSL1_1 and ADAM17_2 were slightly lower efficiency.	Peptides bearing the MMP14_1 motif with CTSL1_1 and ADAM17_2 were slightly lower efficiency.	Peptides bearing the MMP14_1 motif with CTSL1_1 and ADAM17_2 were slightly lower efficiency.	Peptides bearing the MMP14_1 motif with CTSL1_1 and ADAM17_2 were slightly lower efficiency.	Peptides bearing the MMP14_1 motif with CTSL1_1 and ADAM17_2 were slightly lower efficiency.	Peptides bearing the MMP14_1 motif with CTSL1_1 and ADAM17_2 were slightly lower efficiency.	CTSL1 treatment of the 30-mer peptide library produced cleavages in all peptides bearing a CTSL1_1 or CTSL1_2 motif	CTSL1 treatment of the 30-mer peptide library produced cleavages in all peptides bearing a CTSL1_1 or CTSL1_2 motif	CTSL1 treatment of the 30-mer peptide library produced cleavages in all peptides bearing a CTSL1_1 or CTSL1_2 motif	The most efficiently cleaved peptides were those containing the FAPa_1, CTSL1_1 and ADAM17_2 motifs, in multiple orders.	The most efficiently cleaved peptides were those containing the FAPa_1, CTSL1_1 and ADAM17_2 motifs, in multiple orders.	The most efficiently cleaved peptides were those containing the FAPa_1, CTSL1_1 and ADAM17_2 motifs, in multiple orders.	The most efficiently cleaved peptides were those containing the FAPa_1, CTSL1_1 and ADAM17_2 motifs, in multiple orders.	The most efficiently cleaved peptides were those containing the FAPa_1, CTSL1_1 and ADAM17_2 motifs, in multiple orders.	cleavage efficiency of 30-mer library peptides (ALU30-15): lower CTSL1 activity; 30-mer cleavage (substrate disappearance and product formation) (ALU30-18): Both peptides showed rapid disappearance of substrate (squares) and product formation from cleavage at the target scissile bond; 30-mer cleavage (substrate disappearance and product formation) (ALU30-6): Both peptides showed rapid disappearance of substrate (squares) and product formation from cleavage at the target scissile bond; FRET substrate cleavage [1]: CTSL1 cleaves the FRET substrate bearing the CTSL1_1 motif highly efficiently; FRET substrate cleavage [2]: the new CTSL1_2 motif was not cleaved in the context of an 8-mer FRET peptide; FRET substrate cleavage, catalytic efficiency [3]: This 9-mer FRET substrate bearing the CTSL1_2 motif produced comparable catalytic efficiency to the CTSL1_1 motif
Thrombin, recombinant human	Thrombin showed higher activity than Factor Xa, and it cleaved each of the 30-mer peptides.	Thrombin showed higher activity than Factor Xa, and it cleaved each of the 30-mer peptides.	the peptides Alu30-12, Alu30-13 and Alu30-15, with MMP14_1 motifs in combination with ADAM17_2 and CTSL1_1, were cleaved at lower efficiency by thrombin	the peptides Alu30-12, Alu30-13 and Alu30-15, with MMP14_1 motifs in combination with ADAM17_2 and CTSL1_1, were cleaved at lower efficiency by thrombin	Thrombin showed higher activity than Factor Xa, and it cleaved each of the 30-mer peptides.	the peptides Alu30-12, Alu30-13 and Alu30-15, with MMP14_1 motifs in combination with ADAM17_2 and CTSL1_1, were cleaved at lower efficiency by thrombin	Thrombin showed higher activity than Factor Xa, and it cleaved each of the 30-mer peptides.	The two alternate ADAM17 motifs were cleaved with similar efficiency (peptides Alu30-17 vs Alu30-9).	the CTSL1_2 motif had lower cleavage activity than did the CTSL1_1 motif (peptides Alu30-18 vs Alu30-6)	The peptides Alu30-1 and Alu30-3 were the most rapidly cleaved in the library	Thrombin showed higher activity than Factor Xa, and it cleaved each of the 30-mer peptides.	the CTSL1_2 motif had lower cleavage activity than did the CTSL1_1 motif (peptides Alu30-18 vs Alu30-6)	Thrombin showed higher activity than Factor Xa, and it cleaved each of the 30-mer peptides.	Thrombin showed higher activity than Factor Xa, and it cleaved each of the 30-mer peptides.	The two alternate ADAM17 motifs were cleaved with similar efficiency (peptides Alu30-17 vs Alu30-9).	30-mer substrate degradation (MSP-MS) (ALU30-19): Thrombin showed higher activity than Factor Xa, and it cleaved each of the 30-mer peptides.; 30-mer substrate degradation (MSP-MS) (ALU30-2): The peptide Alu30-2, bearing two MMP14_1 motifs, was less susceptible to thrombin; 30-mer substrate degradation (MSP-MS) (ALU30-3): The peptides Alu30-1 and Alu30-3 were the most rapidly cleaved in the library; 30-mer substrate degradation (MSP-MS) (ALU30-4): Alu30-4 was also an efficient substrate
